Measured values reported in PMC7311640, “The Beta Subunit of Non-bifurcating NADH-Dependent [FeFe]-Hydrogenases Differs From Those of Multimeric Electron-Bifurcating [FeFe]-Hydrogenases” (Frontiers in Microbiology, 2020).

Molecular target: the molecule itself
Experiment: SEC; purified HydAB fraction on Superdex 200 10/300 GL calibrated with gel filtration standards

B1: αβ heterodimer of Syntrophus aciditrophicus HydAB (His-HydA with HydB) (complex)
chain 1: MEEHMSSINLTVNNIDVEVEAGATLYQAAQKAGVNIPTLCAWFDKDHTPGACRVCVVEVEGMPSLAASCAYPAQNGMKVFTNSDKVRQARKMIVELILASHPQECNFCVRNGNCELQKVAEMVGVKNIRYDSEEFDRDRELDTSSPAIVRDSSKCINCRRCVTVCESIQTVAALSPMNRGYESTVSPAFNLPLNETNCVNCGQCVMACPVGALYEKDQVDEVWKALQDPTRHVVVQEAPAIRAALGEEFGMPPGSLVTGKMIAALRRLGFDKVFDTNFTADLTIIEEGNELLKRVKEGGTLPMITSCSPGWIKFCEHFYPDLLGHLSTCKSPQQMFGALAKTYYAQVSGIDPANIFSVSIMPCTAKKYEAQRPEMKSSGYQDVDVVLTTRELARMIKEAGIDFVNLPDEKYDDPMGEYTGAATIFGATGGVMEAALRTVYAVVTGEELSDLNIMPVRGLEGVKAAAVPVGALGDVKVAVAHGLGNARKLLDEIRAGKSEYAFIEVMCCPGGCVAGGGEPIPTTDEIRMLRAGALYRDDGEVQQYRQSHQSPPVKAVYEKFLKEPLGHKSHELLHTHYVQRGQSLPHLDASPAGEKETVEAMCEKD
chain 2: MITVQDIENVIAARGNAREHLMAILRDLENLSGRNVLDVSVLNTLAMKMDLPQSAISGFTSFYTMFSTEPRAKFIIRVCKSGPCHVMGARTIFDVIENHLGIRAGETTADGLFHLEECECLGLCSAAPAMMVNYDMHGNLSESNIKEILDSYSAREPAFKAEYGPGIEGRAVIINNSQQTRRLLENVGKVDPASIESYLQNGGYEAARKAFAEYSPEQVIGIVKDSGLRGRGGAGFPVGVKWSFVPKGEMQKYVICNADEGEPGTFKDRVLMEENPQQLIEGMLLCGYAIGATLGYIYVRGEYRRSIERLQSAIDQARAKGFLGKKIFGSNFDFDIFVKEGGGAYVCGEETSLINSMEGKRGYPRVRPPFPAAAGFMGMPSNVNNVETLSSIPMIVARGADWFKSVGTATCAGTKLYCLSGKVNQTGLVELPMGATLRQMIDTFGGGMKSGSSFKFAQVGGAAGGILGADLMDLPLDIDSTIKAGVTLGSGVVLVCDQETCAVDFLLNVLNFFEHESCGQCIPCKLGTSQLHYVAQKFAMREAEEKDIQLMIDTAKMMKLASLCALGQSPILPIETMIRNFREEFVKHCDPDYECPQCDASLQAYYL
notes: HydA, [FeFe]-hydrogenase alpha subunit, Syntrophus aciditrophicus, locus tag SYN_01370; as the chain of m1; HydB, [FeFe]-hydrogenase beta subunit, Syntrophus aciditrophicus, locus tag SYN_01369; as the chain of m2; Unit of the α2β2 heterotetramer found by size exclusion chromatography; also called HydAB fraction; 144 kDa αβ heterodimer; source: E. coli BL21(DE3), co-expressed with maturation genes
- stoichiometry N: 2
